tested on: Escherichia coli TOP10; test: shrunken log2 fold change of peptide-encoding DNA abundance (4.5 h post-induction vs induction); higher = less antimicrobial activity (less host growth inhibition); details: time post-induction: 4.5 h; library: site-saturation at positions 5, 18, 19, 20
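Also: peptides expressed intracellularly from a pBAD plasmid library in pooled LB shake-flask culture, induced with 0.3% L-arabinose, DNA abundance read by NGS, three biological replicates, DESeq2 with apeglm shrinkage.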

RRIRSRPPRLPRPRPRPHQDPRP and RRIRYRPPRLPRPRPRPGTQPRP are within 0.2 log units of each other in “shrunken log2 fold change” value: -0.117 for the first, -0.141 for the second.

First: RRIRERPPRLPRPRPRPRGWPRP
Second: RRIRWRPPRLPRPRPRPPPRPRP
The “shrunken log2 fold change” value of the first is lower: 0.917 for the first, 1.14 for the second.

RRIRVRPPRLPRPRPRPQWGPRP and RRIRSRPPRLPRPRPRPLTTPRP are within 0.2 log units of each other in “shrunken log2 fold change” value: -0.149 for the first, -0.127 for the second.

Compared with RRIRIRPPRLPRPRPRPIVQPRP, RRIRVRPPRLPRPRPRPRHRPRP is higher in “shrunken log2 fold change” value: -0.158 for the first, 0.0675 for the second.

RRIRQRPPRLPRPRPRPEVTPRP and RRIRVRPPRLPRPRPRPGTHPRP are within 0.2 log units of each other in “shrunken log2 fold change” value: -0.0614 for the first, -0.056 for the second.

RRIRLRPPRLPRPRPRPFDLPRP and RRIRWRPPRLPRPRPRPDEPPRP are within 0.2 log units of each other in “shrunken log2 fold change” value: -0.0989 for the first, -0.00634 for the second.

RRIRPRPPRLPRPRPRPYHCPRP and RRIRPRPPRLPRPRPRPPTQPRP are within 0.2 log units of each other in “shrunken log2 fold change” value: -0.0484 for the first, 0.12 for the second.

RRIRHRPPRLPRPRPRPNMRPRP and RRIRVRPPRLPRPRPRPIQMPRP are within 0.2 log units of each other in “shrunken log2 fold change” value: 0.0719 for the first, -0.0987 for the second.

RRIRQRPPRLPRPRPRPKYFPRP and RRIRTRPPRLPRPRPRPVHVPRP are within 0.2 log units of each other in “shrunken log2 fold change” value: 0.0276 for the first, 0.039 for the second.

RRIRERPPRLPRPRPRPAPMPRP and RRIRGRPPRLPRPRPRPSDVPRP are within 0.2 log units of each other in “shrunken log2 fold change” value: 0.116 for the first, 0.0304 for the second.

Going from RRIRQRPPRLPRPRPRPVQSPRP to RRIRYRPPRLPRPRPRPWMHPRP, the “shrunken log2 fold change” value falls from 0.0508 to -0.519.

Going from RRIRSRPPRLPRPRPRPPSCPRP to RRIRLRPPRLPRPRPRPPKSPRP, the “shrunken log2 fold change” value rises from -0.0434 to 0.275.

Going from RRIRIRPPRLPRPRPRPSALPRP to RRIRSRPPRLPRPRPRPQTTPRP, the “shrunken log2 fold change” value rises from -0.832 to -0.237.

First: RRIRERPPRLPRPRPRPYSQPRP
Second: RRIRGRPPRLPRPRPRPKGWPRP
The “shrunken log2 fold change” value of the first is lower: -0.443 for the first, 1.46 for the second.

Compared with RRIRKRPPRLPRPRPRPVDEPRP, RRIRIRPPRLPRPRPRPRFNPRP is lower in “shrunken log2 fold change” value: 0.358 for the first, -0.173 for the second.

Going from RRIRFRPPRLPRPRPRPARYPRP to RRIRERPPRLPRPRPRPWSCPRP, the “shrunken log2 fold change” value falls from 0.153 to -0.11.

First: RRIRPRPPRLPRPRPRPPHQPRP
Second: RRIRARPPRLPRPRPRPQYQPRP
The “shrunken log2 fold change” value of the first is higher: 0.146 for the first, -0.243 for the second.

First: RRIRQRPPRLPRPRPRPVSLPRP
Second: RRIRVRPPRLPRPRPRPKPRPRP
The “shrunken log2 fold change” value of the first is lower: -0.131 for the first, 0.638 for the second.

Compared with RRIRRRPPRLPRPRPRPNGAPRP, RRIRQRPPRLPRPRPRPLYGPRP is higher in “shrunken log2 fold change” value: -0.151 for the first, 0.0686 for the second.

RRIRSRPPRLPRPRPRPATNPRP and RRIRHRPPRLPRPRPRPATHPRP are within 0.2 log units of each other in “shrunken log2 fold change” value: 0.0897 for the first, -0.105 for the second.

RRIRKRPPRLPRPRPRPASWPRP and RRIRRRPPRLPRPRPRPTFFPRP are within 0.2 log units of each other in “shrunken log2 fold change” value: 0.625 for the first, 0.722 for the second.

Going from RRIRTRPPRLPRPRPRPADIPRP to RRIRYRPPRLPRPRPRPSLYPRP, the “shrunken log2 fold change” value falls from -0.0781 to -1.

RRIRGRPPRLPRPRPRPCYCPRP and RRIRFRPPRLPRPRPRPSIEPRP are within 0.2 log units of each other in “shrunken log2 fold change” value: -0.164 for the first, -0.342 for the second.

RRIRWRPPRLPRPRPRPVNEPRP and RRIRFRPPRLPRPRPRPWPHPRP are within 0.2 log units of each other in “shrunken log2 fold change” value: -0.0791 for the first, -0.132 for the second.

Going from RRIRGRPPRLPRPRPRPGMKPRP to RRIRCRPPRLPRPRPRPAVEPRP, the “shrunken log2 fold change” value falls from 0.484 to -0.0939.

First: RRIRKRPPRLPRPRPRPPASPRP
Second: RRIRVRPPRLPRPRPRPDKKPRP
The “shrunken log2 fold change” value of the first is higher: 0.424 for the first, 0.135 for the second.

Compared with RRIRHRPPRLPRPRPRPVRQPRP, RRIRERPPRLPRPRPRPVILPRP is lower in “shrunken log2 fold change” value: 0.0261 for the first, -0.388 for the second.

First: RRIRMRPPRLPRPRPRPNGSPRP
Second: RRIRMRPPRLPRPRPRPPPRPRP
The “shrunken log2 fold change” value of the first is lower: -0.000925 for the first, 2.36 for the second.

RRIRIRPPRLPRPRPRPAAIPRP and RRIRSRPPRLPRPRPRPNCAPRP are within 0.2 log units of each other in “shrunken log2 fold change” value: -0.199 for the first, -0.172 for the second.

Going from RRIRDRPPRLPRPRPRPWPRPRP to RRIRDRPPRLPRPRPRPSHIPRP, the “shrunken log2 fold change” value falls from 0.211 to -1.15.

Going from RRIRQRPPRLPRPRPRPYTAPRP to RRIRLRPPRLPRPRPRPPGVPRP, the “shrunken log2 fold change” value rises from -0.219 to 0.426.

Compared with RRIRWRPPRLPRPRPRPYPRPRP, RRIRWRPPRLPRPRPRPIKNPRP is higher in “shrunken log2 fold change” value: -0.632 for the first, 0.136 for the second.

RRIRIRPPRLPRPRPRPPETPRP and RRIRPRPPRLPRPRPRPVDFPRP are within 0.2 log units of each other in “shrunken log2 fold change” value: 0.246 for the first, 0.0795 for the second.

RRIRCRPPRLPRPRPRPNFPPRP and RRIRNRPPRLPRPRPRPTRQPRP are within 0.2 log units of each other in “shrunken log2 fold change” value: 0.346 for the first, 0.196 for the second.

RRIRQRPPRLPRPRPRPDWFPRP and RRIRDRPPRLPRPRPRPDHFPRP are within 0.2 log units of each other in “shrunken log2 fold change” value: -0.104 for the first, -0.0133 for the second.

RRIRWRPPRLPRPRPRPCLAPRP and RRIRMRPPRLPRPRPRPGLFPRP are within 0.2 log units of each other in “shrunken log2 fold change” value: 0.329 for the first, 0.236 for the second.

Going from RRIRARPPRLPRPRPRPAKDPRP to RRIRVRPPRLPRPRPRPKAVPRP, the “shrunken log2 fold change” value falls from 0.316 to 0.0112.

Compared with RRIRWRPPRLPRPRPRPHTKPRP, RRIRTRPPRLPRPRPRPAFVPRP is lower in “shrunken log2 fold change” value: 0.0624 for the first, -0.163 for the second.

Compared with RRIRCRPPRLPRPRPRPELAPRP, RRIRRRPPRLPRPRPRPWSPPRP is lower in “shrunken log2 fold change” value: 0.403 for the first, 0.186 for the second.

RRIRIRPPRLPRPRPRPRWAPRP and RRIRFRPPRLPRPRPRPEMEPRP are within 0.2 log units of each other in “shrunken log2 fold change” value: 0.0908 for the first, 0.252 for the second.

Going from RRIRRRPPRLPRPRPRPICLPRP to RRIRVRPPRLPRPRPRPCNMPRP, the “shrunken log2 fold change” value falls from 0.12 to -0.247.

Going from RRIRARPPRLPRPRPRPSKNPRP to RRIRRRPPRLPRPRPRPPPIPRP, the “shrunken log2 fold change” value rises from 0.235 to 0.978.

Compared with RRIRGRPPRLPRPRPRPEMTPRP, RRIRFRPPRLPRPRPRPDFAPRP is lower in “shrunken log2 fold change” value: 3.26 for the first, 0.0852 for the second.

RRIRTRPPRLPRPRPRPAACPRP and RRIRDRPPRLPRPRPRPRNIPRP are within 0.2 log units of each other in “shrunken log2 fold change” value: 0.0816 for the first, -0.0463 for the second.

Compared with RRIRHRPPRLPRPRPRPLEVPRP, RRIRVRPPRLPRPRPRPNQYPRP is lower in “shrunken log2 fold change” value: -0.184 for the first, -0.864 for the second.

Going from RRIRARPPRLPRPRPRPAVPPRP to RRIRERPPRLPRPRPRPGLQPRP, the “shrunken log2 fold change” value falls from 0.848 to 0.103.

RRIRCRPPRLPRPRPRPVKGPRP and RRIRQRPPRLPRPRPRPPYEPRP are within 0.2 log units of each other in “shrunken log2 fold change” value: -0.261 for the first, -0.114 for the second.

First: RRIRFRPPRLPRPRPRPWFMPRP
Second: RRIRMRPPRLPRPRPRPMGPPRP
The “shrunken log2 fold change” value of the first is lower: -0.609 for the first, 0.168 for the second.

First: RRIRCRPPRLPRPRPRPTDHPRP
Second: RRIRMRPPRLPRPRPRPHDSPRP
The “shrunken log2 fold change” value of the first is lower: -0.257 for the first, -0.0393 for the second.

Compared with RRIRQRPPRLPRPRPRPQDKPRP, RRIRCRPPRLPRPRPRPNGQPRP is higher in “shrunken log2 fold change” value: -0.802 for the first, -0.0579 for the second.

Going from RRIRGRPPRLPRPRPRPAYYPRP to RRIRPRPPRLPRPRPRPFLHPRP, the “shrunken log2 fold change” value falls from -0.0149 to -0.273.

RRIRCRPPRLPRPRPRPQAVPRP and RRIRCRPPRLPRPRPRPDCRPRP are within 0.2 log units of each other in “shrunken log2 fold change” value: -0.154 for the first, -0.195 for the second.

RRIRSRPPRLPRPRPRPQILPRP and RRIRGRPPRLPRPRPRPLNVPRP are within 0.2 log units of each other in “shrunken log2 fold change” value: -0.0216 for the first, -0.095 for the second.

Compared with RRIRYRPPRLPRPRPRPAEIPRP, RRIRMRPPRLPRPRPRPFHAPRP is higher in “shrunken log2 fold change” value: -0.148 for the first, 0.199 for the second.

With RRIRKRPPRLPRPRPRPEAKPRP the “shrunken log2 fold change” value was 2.54.
